Test results taken from patent US20220106405A1 (YEDA RESEARCH AND DEVELOPMENT, published 2022).

T1: MMP-7 zymogen / pro form (UniProt P09237 18-267, limits assumed)
T1 construct: domain: zymogen/pro form; Recombinant zymogen on the dot blot and in ELISA; also called MMP-7 pro form; zymogen form of the enzyme
T1 sequence (looked up): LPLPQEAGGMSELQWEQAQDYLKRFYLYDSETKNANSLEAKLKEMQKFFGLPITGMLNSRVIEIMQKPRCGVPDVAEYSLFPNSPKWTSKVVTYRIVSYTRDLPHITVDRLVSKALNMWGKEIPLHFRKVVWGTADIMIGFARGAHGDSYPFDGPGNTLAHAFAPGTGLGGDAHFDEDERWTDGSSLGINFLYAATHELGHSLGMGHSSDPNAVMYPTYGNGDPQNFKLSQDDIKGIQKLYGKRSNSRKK

T2: recombinant human MMP-7 activated form (catalytic domain) (human, UniProt P09237 95-267)
T2 construct: domain: catalytic domain; Contains the catalytic zinc; also called MMP-7 active enzyme
T2 sequence (looked up): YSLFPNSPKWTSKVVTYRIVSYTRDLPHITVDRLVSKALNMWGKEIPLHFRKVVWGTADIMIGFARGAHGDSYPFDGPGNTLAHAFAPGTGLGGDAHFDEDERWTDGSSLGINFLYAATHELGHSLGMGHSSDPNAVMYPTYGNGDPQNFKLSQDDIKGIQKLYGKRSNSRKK


How the values were obtained:
[1] = molecular target: T1, MMP-7 zymogen / pro form; experiment: dot blot
Experimental: A dot blot was performed by immobilizing 1, 1.5 and 2 μg zymogen and activated MMP-7 recombinant enzyme on nitrocellulose membrane pre wetted with TBST using a vacuum based manifold 96 well dot-blot system (GE 10447900 Minifold dot blot). The blocking was performed for 1 hour at room temperature with 3% BSA in TBST. The membrane was then probed for binding by antibody eluted in the earlier step by incubating overnight. The anti MMP-7 mAb used was at 2 ug/ml concentration in TBST. The membrane after 3 washes in TBST was incubated with goat anti mouse HRP antibody and developed using ECL to determine the selectivity of binding towards catalytic form only.
Only antibodies that were capable of binding to the activated form of MMP-7 and not the zymogen were selected for further development (i.e. selected for fusion and developed to generate monoclonal antibodies). This was carried out by dot blot analysis using a nitrocellulose membrane coated with varying concentrations of active MMP-7 and its zymogen respectively.

[2] = molecular target: MMP-14 (UniProt P50281 112-538, limits assumed); experiment: ELISA, MMP-coated plate
Experimental: (§1) MMP-7 Elisa binding assay: A 96-well plate (Nunc) was coated with MMP at 5 mg/ml. […] The bound Fab fragment/full length was detected using a goat anti-Fab/anti-mouse antibody followed by peroxidase-conjugated bovine anti-goat antibody according to standard procedures. A four-parametric sigmoidal curve-fitting analysis was used to calculate the half-maximal effective concentration.
(§2) The lack of binding to a panel of other MMPs helped measure the novel antibody's affinity to epitopes specifically unique to MMP-7.

[3] = molecular target: MMP-12 (UniProt P39900 106-263, limits assumed); experiment: ELISA, MMP-coated plate
Experimental: as §1, §2

[4] = molecular target: MMP-13 (UniProt P45452 104-471, limits assumed); experiment: ELISA, MMP-coated plate
Experimental: as §1, §2

[5] = molecular target: MMP-9 (UniProt P14780 107-707, limits assumed); experiment: ELISA, MMP-coated plate
Experimental: as §1, §2

[6] = molecular target: T2, recombinant human MMP-7 activated form …; experiment: ELISA on MMP-coated plate, four-parametric sigmoidal fit
Experimental: as §1, §2

[7] = molecular target: T2, recombinant human MMP-7 activated form …; experiment: enzyme inhibition, fluorogenic peptide Mca-Pro-Leu-Gly-Leu-Dpa-Ala-Arg-NH2, 10 nM MMP-7, 37 C
Experimental: The enzymatic reaction was initiated by addition of the fluorogenic peptide to a final concentration of 10 μM. Fluorescence was recorded immediately and continuously for 30 min.
Remarkably, considering that the immunization booster also included the common zinc motif, the antibody is fully selective for MMP-7. […] Simultaneously the effect of the antibody on catalytic activity of related MMPs was measured. The catalytic activities in vitro of MMP-9, -14 and -12 were either not affected or in the case of MMP-14 only negligibly affected by the anti MMP-7 Fab treatment (FIG. 2D).

MMP-12, sequence (P39900 106-263 limits assumed): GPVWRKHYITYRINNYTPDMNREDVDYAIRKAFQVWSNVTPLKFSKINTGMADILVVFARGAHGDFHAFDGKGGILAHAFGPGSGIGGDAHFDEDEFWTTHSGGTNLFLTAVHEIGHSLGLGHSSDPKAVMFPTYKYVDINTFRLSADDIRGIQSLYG
MMP-9, sequence (P14780 107-707 limits assumed): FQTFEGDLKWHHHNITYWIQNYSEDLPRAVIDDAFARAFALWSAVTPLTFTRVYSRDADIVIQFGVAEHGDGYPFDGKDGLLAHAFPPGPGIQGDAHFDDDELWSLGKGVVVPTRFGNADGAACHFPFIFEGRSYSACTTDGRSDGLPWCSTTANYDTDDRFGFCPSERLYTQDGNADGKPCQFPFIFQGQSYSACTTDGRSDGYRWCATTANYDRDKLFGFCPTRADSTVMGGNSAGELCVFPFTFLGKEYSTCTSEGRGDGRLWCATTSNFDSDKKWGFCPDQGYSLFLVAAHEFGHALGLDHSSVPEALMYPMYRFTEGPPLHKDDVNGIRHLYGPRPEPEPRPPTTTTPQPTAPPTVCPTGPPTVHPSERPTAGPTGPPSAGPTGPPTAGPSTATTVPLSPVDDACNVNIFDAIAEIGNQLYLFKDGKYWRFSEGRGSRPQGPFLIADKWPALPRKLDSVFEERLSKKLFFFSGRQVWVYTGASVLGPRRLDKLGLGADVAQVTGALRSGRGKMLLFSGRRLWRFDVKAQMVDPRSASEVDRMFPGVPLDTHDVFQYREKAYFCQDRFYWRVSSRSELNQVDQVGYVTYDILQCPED

| binding result [1] | binding result [2] | binding result [3] | binding result [4] | binding result [5] | Kd [6] | Ki [7] | Binder |
| --- | --- | --- | --- | --- | --- | --- | --- |
| no binding | no binding | no binding | no binding | no binding | 43.1 nM | – | GSM-192 monoclonal antibody (antibody, V domains shown, also called anti MMP-7 mAb; anti MMP-7 Ab) VH: EVQLQQSGPELVKPGASVKIPCKASGYTFTDYNMDWMKQSHGKSLEWIGHINPNNGGTFYNQKFKDKATFIVDKSSNTAYMELRSLTSEDTAVYFCARGGGLRRGPFAYWGQGTLVTVS VL: DIVTQSPASLAVSLGQRATISCRASESFDSYGNTFVHWYQQKPGQPPKLLIYLVSNLESGVPAGFRGRGSRTDFTLTIDPVEADDAATYYCQQNNEDPYTFGGGTKLEIKR |
| – | – | – | – | – | – | 132 nM | GSM-192 Fab fragment (Fab, V domains shown, also called anti MMP-7 Fab) VH: EVQLQQSGPELVKPGASVKIPCKASGYTFTDYNMDWMKQSHGKSLEWIGHINPNNGGTFYNQKFKDKATFIVDKSSNTAYMELRSLTSEDTAVYFCARGGGLRRGPFAYWGQGTLVTVS VL: DIVTQSPASLAVSLGQRATISCRASESFDSYGNTFVHWYQQKPGQPPKLLIYLVSNLESGVPAGFRGRGSRTDFTLTIDPVEADDAATYYCQQNNEDPYTFGGGTKLEIKR |
